Experiment [1] deals with T1, human Sirpα-V1-his (human, UniProt P78324 31-373).
T1 construct: range 31-373; Bought (Sino Biological 11612-H08H) or expressed in-house; also called hSirpα-V1; hSirpα-V1-his
Put plainly: blocking ELISA, competitor CD47-hFc. The method, then: (§1) The recombinant proteins such as human Sirpα-V1-hFc/Sirpα-V1-his were diluted to concentrations of 5 μg/mL or 2 μg/mL respectively with a PBS buffer at pH 7.4, and then added into a 96-well ELISA plate (Corning, CLS3590-100EA) at a volume of 50 μL/well, and placed in an incubator at 37° C. for 2 hours. After the liquid was discarded, the wells were added with a blocking solution of 5% skimmed milk (skimmed milk powder available from Bright Dairy) diluted with PBS at 230 μL/well, and incubated in an incubator at 37° C. for 3 hours, or placed overnight at 4° C. (for 16-18 hours) for blocking. […] The plate was washed for 5 times, added with 50 μL/well of streptavidin-HRP (GenScript, M00091) or anti-his-HRP secondary antibody (GenScript, A00612) diluted at 1:1000, incubated at 37° C. for 1 hour, and then washed with PBST for 5 times. Each well was added with 50 μL of TMB (Surmodic, Cat #: TTMB-1000-01) for color development, and added with 50 μL/well of 1 M H₂SO₄ to stop the reaction. The readings on a microplate reader (MultiskanGO Thermo, Model 51119200) were subjected to data analysis by GraphPad prism 5.

Experiment [2] has as its target T1, human Sirpα-V1-his. Put plainly: ELISA. For orientation: In an ELISA, binding on a coated surface is turned into a signal by an enzyme label.
Experiment [3] has as its target T2, human Sirpα-V1-hFc (human, UniProt P78324 31-373).
T2 construct: range 31-373; also called hSirpα (dimer); hSirpα-V1-hFc (dimer); not shown: human IgG1 Fc region at the C-terminus
Put plainly: blocking ELISA, competitor CD47-his. The method, then:
as §1

B1: humanized antibody mab14-h14 (antibody, human IgG4 S228P, kappa, V domains shown)
VH: QVQLVQSGAEVKKPGASVKVSCKASGYNFNIYWINWVRQAPGQGLEWIGNIYPSSISTNYNEKFKTRATLTVDKSTSTVYMELSSLRSEDTAVYYCARSEGTYYGGRYEGDWFGYWGQGTLVTVSS
VL: DIQMTQSPSSLSASVGDRVTITCRASQDIRNYLNWYQQKPGGTPKLLIYFTSTLHSGVPSRFSGSGSGTDYTLTISSLQPEDFATYYCQQGNTLPWTFGGGTKVEIKR
notes: hIgG4, κ
B1: the IC50 (commonly the point on the concentration scale where inhibition reaches its midpoint) in experiment [1] stood at 9100 pM; in experiment [3], 4750 pM. Also, the EC50 (in general, the concentration needed to bring the measured effect to its halfway point) in experiment [2] was determined as 57 pM.

B2: humanized antibody mab14-h6 (antibody, human IgG4 S228P, kappa, V domains shown)
VH: QVQLVQSGAEVKKPGASVKVSCKASGYNFNIYWINWVKQAPGQGLEWIGNIYPSSISTNYNEKFKTRATLTVDTSTSTVYMELSSLRSEDTAVYYCARSEGTYYGGRYEGDWFGYWGQGTLVTVSS
VL: DIQMTQSPSSLSASVGDRVTITCRASQDIRNYLNWYQQKPGGTVKLLIYFTSTLHSGVPSRFSGSGSGTDYTLTISSLQPEDFATYYCQQGNTLPWTFGGGTKVEIKR
notes: hIgG4, κ
In experiment [2], B2 displayed an EC50 of 95 pM.

B3: humanized antibody mab14-h11 (antibody, human IgG4 S228P, kappa, V domains shown)
VH: QVQLVQSGAEVKKPGASVKVSCKASGYNFNIYWINWVKQAPGQGLEWIGNIYPSSISTNYNEKFKTKATLTVDKSTSTVYMEFSSLRSEDTAVYYCARSEGTYYGGRYEGDWFGYWGQGTLVTVSS
VL: DIQMTQSPSSLSASVGDRVTITCRASQDIRNYLNWYQQKPGKTPKLLIYFTSTLHSGVPSRFSGSGSGTDYTLTISSLQPEDFATYYCQQGNTLPWTFGGGTKVEIKR
notes: hIgG4, κ
Take B3: the 50% effective concentration (EC50) in experiment [2] worked out at 73 pM.

B4: humanized antibody mab14-h15 (antibody, human IgG4 S228P, kappa, V domains shown)
VH: QVQLVQSGAEVKKPGASVKVSCKASGYNFNIYWINWVRQAPGQGLEWIGNIYPSSISTNYNEKFKTRATLTVDKSTSTVYMELSSLRSEDTAVYYCARSEGTYYGGRYEGDWFGYWGQGTLVTVSS
VL: DIQMTQSPSSLSASVGDRVTITCRASQDIRNYLNWYQQKPGKTPKLLIYFTSTLHSGVPSRFSGSGSGTDYTLTISSLQPEDFATYYCQQGNTLPWTFGGGTKVEIKR
notes: hIgG4, κ
Consider B4, for which the half-inhibitory concentration (IC50) in experiment [1] was 7370 pM; in experiment [3] it was 5130 pM. In addition, the EC50 in experiment [2] turned out to be 77 pM.

B5: humanized antibody mab14-h8 (antibody, human IgG4 S228P, kappa, V domains shown)
VH: QVQLVQSGAEVKKPGASVKVSCKASGYNFNIYWINWVKQAPGQGLEWIGNIYPSSISTNYNEKFKTKATLTVDKSTSTVYMEFSSLRSEDTAVYYCARSEGTYYGGRYEGDWFGYWGQGTLVTVSS
VL: DIQMTQSPSSLSASVGDRVTITCRASQDIRNYLNWYQQKPGGTPKLLIYFTSTLHSGVPSRFSGSGSGTDFTLTISSLQPEDFATYYCQQGNTLPWTFGGGTKVEIKR
notes: hIgG4, κ
On to B5, for which the 50% effective concentration (EC50) in experiment [2] came out at 67 pM.

B6: humanized antibody mab14-h5 (antibody, human IgG4 S228P, kappa, V domains shown)
VH: QVQLVQSGAEVKKPGASVKVSCKASGYNFNIYWINWVRQAPGQGLEWIGNIYPSSISTNYNEKFKTRATLTVDKSTSTVYMELSSLRSEDTAVYYCARSEGTYYGGRYEGDWFGYWGQGTLVTVSS
VL: DIQMTQSPSSLSASVGDRVTITCRASQDIRNYLNWYQQKPGGTVKLLIYFTSTLHSGVPSRFSGSGSGTDYTLTISSLQPEDFATYYCQQGNTLPWTFGGGTKVEIKR
notes: hIgG4, κ
As for B6, the 50% inhibitory concentration (IC50) was 8470 pM in experiment [1] and 8990 pM in experiment [3]. This molecule also showed a concentration giving a half-maximal response (EC50) in experiment [2] of 61 pM.

B7: humanized antibody mab14-h3 (antibody, human IgG4 S228P, kappa, V domains shown)
VH: QVQLVQSGAEVKKPGASVKVSCKASGYNFNIYWINWVRQAPGQGLEWMGNIYPSSISTNYNEKFKTRATLTVDTSTSTVYMELSSLRSEDTAVYYCARSEGTYYGGRYEGDWFGYWGQGTLVTVSS
VL: DIQMTQSPSSLSASVGDRVTITCRASQDIRNYLNWYQQKPGGTVKLLIYFTSTLHSGVPSRFSGSGSGTDYTLTISSLQPEDFATYYCQQGNTLPWTFGGGTKVEIKR
notes: hIgG4, κ
For B7, in experiment [2], the half-maximal effective concentration (EC50) amounted to 103 pM.

B8: humanized antibody mab14-h4 (antibody, human IgG4 S228P, kappa, V domains shown)
VH: QVQLVQSGAEVKKPGASVKVSCKASGYNFNIYWINWVRQAPGQGLEWIGNIYPSSISTNYNEKFKTRATLTVDTSTSTVYMELSSLRSEDTAVYYCARSEGTYYGGRYEGDWFGYWGQGTLVTVSS
VL: DIQMTQSPSSLSASVGDRVTITCRASQDIRNYLNWYQQKPGGTVKLLIYFTSTLHSGVPSRFSGSGSGTDYTLTISSLQPEDFATYYCQQGNTLPWTFGGGTKVEIKR
notes: hIgG4, κ
As for B8, in experiment [2], the EC50 was 88 pM.

B9: humanized antibody mab14-h1 (antibody, human IgG4 S228P, kappa, V domains shown)
VH: QVQLVQSGAEVKKPGASVKVSCKASGYNFNIYWINWVRQAPGQGLEWMGNIYPSSISTNYNEKFKTRVTMTRDTSTSTVYMELSSLRSEDTAVYYCARSEGTYYGGRYEGDWFGYWGQGTLVTVSS
VL: DIQMTQSPSSLSASVGDRVTITCRASQDIRNYLNWYQQKPGKAPKLLIYFTSTLHSGVPSRFSGSGSGTDFTLTISSLQPEDFATYYCQQGNTLPWTFGGGTKVEIKR
notes: hIgG4, κ
Turning to B9, in experiment [2], the EC50 turned out to be 148 pM.

B10: humanized antibody mab14-h10 (antibody, human IgG4 S228P, kappa, V domains shown)
VH: QVQLVQSGAEVKKPGASVKVSCKASGYNFNIYWINWVKQAPGQGLEWIGNIYPSSISTNYNEKFKTKATLTVDKSTSTVYMEFSSLRSEDTAVYYCARSEGTYYGGRYEGDWFGYWGQGTLVTVSS
VL: DIQMTQSPSSLSASVGDRVTITCRASQDIRNYLNWYQQKPGGTPKLLIYFTSTLHSGVPSRFSGSGSGTDYTLTISSLQPEDFATYYCQQGNTLPWTFGGGTKVEIKR
notes: hIgG4, κ
Turning to B10, the midpoint of the response in experiment [2], the EC50, lay at 68 pM.

B11: humanized antibody mab14-h12 (antibody, human IgG4 S228P, kappa, V domains shown)
VH: QVQLVQSGAEVKKPGASVKVSCKASGYNFNIYWINWVRQAPGQGLEWIGNIYPSSISTNYNEKFKTRATLTVDKSTSTVYMELSSLRSEDTAVYYCARSEGTYYGGRYEGDWFGYWGQGTLVTVSS
VL: DIQMTQSPSSLSASVGDRVTITCRASQDIRNYLNWYQQKPGGTPKLLIYFTSTLHSGVPSRFSGSGSGTDFTLTISSLQPEDFATYYCQQGNTLPWTFGGGTKVEIKR
notes: hIgG4, κ
With B11, the concentration for half-maximal inhibition (IC50) is 8080 pM in experiment [1] and 3490 pM in experiment [3]. In experiment [2], the 50% effective concentration (EC50) came out at 92 pM.

B12: humanized antibody mab14-h9 (antibody, human IgG4 S228P, kappa, V domains shown)
VH: QVQLVQSGAEVKKPGASVKVSCKASGYNFNIYWINWVKQAPGQGLEWIGNIYPSSISTNYNEKFKTKATLTVDKSTSTVYMEFSSLRSEDTAVYYCARSEGTYYGGRYEGDWFGYWGQGTLVTVSS
VL: DIQMTQSPSSLSASVGDRVTITCRASQDIRNYLNWYQQKPGGAPKLLIYFTSTLHSGVPSRFSGSGSGTDYTLTISSLQPEDFATYYCQQGNTLPWTFGGGTKVEIKR
notes: hIgG4, κ
B12 registered an EC50 in experiment [2] of 62 pM.

B13: humanized antibody mab14-h2 (antibody, human IgG4 S228P, kappa, V domains shown)
VH: QVQLVQSGAEVKKPGASVKVSCKASGYNFNIYWINWVKQAPGQGLEWIGNIYPSSISTNYNEKFKTKATLTVDKSTSTVYMEFSSLRSEDTAVYYCARSEGTYYGGRYEGDWFGYWGQGTLVTVSS
VL: DIQMTQSPSSLSASVGDRVTITCRASQDIRNYLNWYQQKPGGTVKLLIYFTSTLHSGVPSRFSGSGSGTDYTLTISSLQPEDFATYYCQQGNTLPWTFGGGTKVEIKR
notes: hIgG4, κ
On to B13, for which, in experiment [2], the half-maximal effective concentration (EC50) was found to be 73 pM.

B14: humanized antibody mab14-h13 (antibody, human IgG4 S228P, kappa, V domains shown)
VH: QVQLVQSGAEVKKPGASVKVSCKASGYNFNIYWINWVRQAPGQGLEWIGNIYPSSISTNYNEKFKTRATLTVDKSTSTVYMELSSLRSEDTAVYYCARSEGTYYGGRYEGDWFGYWGQGTLVTVSS
VL: DIQMTQSPSSLSASVGDRVTITCRASQDIRNYLNWYQQKPGGAPKLLIYFTSTLHSGVPSRFSGSGSGTDYTLTISSLQPEDFATYYCQQGNTLPWTFGGGTKVEIKR
notes: hIgG4, κ
As for B14, the values for the IC50 in experiment [1] and in experiment [3] were 9560 pM and 5310 pM, respectively. In addition, it took 89 pM to reach a half-maximal effect in experiment [2] (EC50).

B15: humanized antibody mab14-h7 (antibody, human IgG4 S228P, kappa, V domains shown)
VH: QVQLVQSGAEVKKPGASVKVSCKASGYNFNIYWINWVKQAPGQGLEWIGNIYPSSISTNYNEKFKTKATLTVDTSTSTVYMELSSLRSEDTAVYYCARSEGTYYGGRYEGDWFGYWGQGTLVTVSS
VL: DIQMTQSPSSLSASVGDRVTITCRASQDIRNYLNWYQQKPGGTVKLLIYFTSTLHSGVPSRFSGSGSGTDYTLTISSLQPEDFATYYCQQGNTLPWTFGGGTKVEIKR
notes: hIgG4, κ
With B15, the midpoint of the response in experiment [2], the EC50, lay at 81 pM.
